Test results reported in patent US20160333075A1 (MAB EXPLORATIONS SDN BHD, published 2016).
Numbering of substitutions follows the chain as printed.

B1: hVL1 + hVH1 E19 (antibody, V domains shown)
VH: DVQLQESGPGLVKPSQTLSLTCTVSGYSITSGFYLNWIRQHPCKGLEWIGYINYGGSINYNPSLKSRVTISRDTSKNQFSLKLSSVTAADTAVYYCATMPNSWYFDVWGRGTLVTVSS
VL: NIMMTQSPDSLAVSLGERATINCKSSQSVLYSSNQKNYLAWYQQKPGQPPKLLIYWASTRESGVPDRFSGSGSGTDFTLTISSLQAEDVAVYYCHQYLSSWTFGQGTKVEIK
B2: hVL1 + hVH2 E19 (antibody, V domains shown)
VH: B1 VH with C43G, G45K, R110T
VL: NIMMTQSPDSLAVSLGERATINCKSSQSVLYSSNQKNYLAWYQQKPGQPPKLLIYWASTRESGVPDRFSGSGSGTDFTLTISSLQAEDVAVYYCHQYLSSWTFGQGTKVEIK
B3: hVL1 + hVH3 E19 (antibody, V domains shown)
VH: B1 VH with D1E, Q5V, I38V, C43G, G45K, T69S, S84T, R110T
VL: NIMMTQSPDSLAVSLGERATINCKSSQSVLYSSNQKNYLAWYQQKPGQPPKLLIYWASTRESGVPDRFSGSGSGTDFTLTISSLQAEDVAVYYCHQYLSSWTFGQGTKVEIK
B4: Recombinant chimeric E18 VL + VH (antibody, V domains shown)
VH: QIQLVQSGPELKKPGETVKISCKASGYTFTRYGMSWVKQAPGKGLKWMGWINTYSGVPTYADDFKGRFAFSLETSASTAYLQINNLKNEDTATYFCARRGYSNYYPMDFWGQGTSVTVSS
VL: DIKMTQSPSSMYASLGERVTITCKASQDIKSYLSWYQQKPWKSPKTLIYYAKNLADGVPSRFSGSGFGQDYSLTISSLESDDTATYYCLQHGESPYTFGSGTKLEIKR
B5: Recombinant chimeric E20 VL + VH (antibody, V domains shown)
VH: EVQLVESGGGLVKPGGSLKLSCAASGFTFNIYAMSWVRQTPEKRLEWVATISDGGSYTYYPDNVKGRFTISRDNAKNNLYLQMSHLKSEDTAMYYCVRDRGNYYSRAFPYAYWGQGTLVTVSA
VL: SIVMTQTPKFLPVSAGDRVTMTCKASQSVGNNVAWYQQKSGQSPKLLIYYASNRYTGVPDRFTGSGSGTDFTFTISSVQVEDLAVYFCQQHYSSPPTFGAGTKLELK

Assays:
Assay in all cases: cell-based or functional assay
[1] = target: enterovirus 71 (EV71) virions (enterovirus 71)
[2] = target: enterovirus 71 (EV71) virions (enterovirus 71); remark: listed apart in the source
[3] = target: enterovirus 71 (EV71) virions (enterovirus 71); remark: listed apart in the source

| Binder | Average IC50 [1] [ng/mL] | IC50 (#1) [1] [ng/mL] | IC50 (#2) [1] [ng/mL] | IC50 in ATCC cells relative to the parental antibody [2] [fold] | IC50 in NIBSC cells relative to the parental mouse antibody [2] [fold] | Inhibitory concentration 50 (IC50), Vero ATCC [3] [ng/mL] | Inhibitory concentration 50 (IC50), Vero NIBSC [3] [ng/mL] | end point PRNT50, Vero ATCC [3] [ng/mL] | end point PRNT50, Vero NIBSC [3] [ng/mL] |
| --- | --- | --- | --- | --- | --- | --- | --- | --- | --- |
| B1 | 89.2 | 56.5 | 122 | – | – | – | – | – | – |
| B2 | 119 | 118 | 121 | – | – | – | – | – | – |
| B3 | 89.6 | 96.5 | 82.6 | – | – | – | – | – | – |
| B4 | – | – | – | ~2 | ~5 | 585 | 966 | 625 | 2500 |
| B5 | – | – | – | – | – | 3180 | – | 5000 | > 10000 |
